Results as given in US20220227830A1, “QD DOSING OF GIP RECEPTOR AGONIST PEPTIDE COMPOUNDS AND USES THEREOF” (Takeda Pharmaceutical Company Limited, priority 2020, published 2022).
Starred links: 1 amine or outer side, 2 acyl side, 3 side chain; linkers in the order of their positions; H or OH if unused. Non-standard residues stand in square brackets, D forms with d. Groups on a side chain read outwards from the residue. No end group written: not given here. *: point of attachment. 2OEGgEgE‑C15DA = 2OEGgEgE-C15 diacid linker-lipid on the Lys side chain, O=C(O)CCCCCCCCCCCCCC(=O)N[C@@H](CCC(=O)N[C@@H](CCC(=O)NCCOCCOCC(=O)NCCOCCOCC(=O)*)C(=O)O)C(=O)O; 2OEGgE‑C16DA = O=C(O)CCCCCCCCCCCCCCC(=O)N[C@@H](CCC(=O)NCCOCCOCC(=O)NCCOCCOCC(=O)*)C(=O)O; G2E3 = linker of 2 Gly and 3 Glu (read GGEEE); C15 diacid = O=C(O)CCCCCCCCCCCCCC(=O)*; γGlu = O=C(O)[C@H](CCC(=O)[*:2])N[*:1]; NMeY = CN[C@@H](Cc1ccc(O)cc1)C(=O)O; AEEA = NCCOCCOCC(=O)O; Aib = CC(C)(N)C(=O)O

T1: full-length human GIPR with an N-terminal FLAG tag (human, UniProt P48546 22-466)
T1 sequence (looked up): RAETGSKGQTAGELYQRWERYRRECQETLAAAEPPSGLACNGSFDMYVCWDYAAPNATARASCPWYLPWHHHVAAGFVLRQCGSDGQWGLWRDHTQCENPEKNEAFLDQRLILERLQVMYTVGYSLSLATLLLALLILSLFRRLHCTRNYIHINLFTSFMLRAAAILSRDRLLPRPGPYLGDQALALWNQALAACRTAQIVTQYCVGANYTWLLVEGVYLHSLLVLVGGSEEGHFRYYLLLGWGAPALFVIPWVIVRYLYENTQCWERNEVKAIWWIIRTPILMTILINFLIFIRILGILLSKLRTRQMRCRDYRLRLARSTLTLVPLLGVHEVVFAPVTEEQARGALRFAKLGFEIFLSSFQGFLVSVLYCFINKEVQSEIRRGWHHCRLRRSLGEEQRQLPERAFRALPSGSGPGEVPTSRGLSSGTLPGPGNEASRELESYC


target: T1, full-length human GIPR with an …; assay: cell-based or functional assay

| Binder | Human GIPR cAMP, HEK293T EC50 [nM] |
| --- | --- |
| Me-Y[Aib]EGTFISDYSI[Aib]LDRKAQ[Aib]NFVNWLLAQRPSSGAPPPS-NH2 (not fully specified (residues 1, 17)) [Compound 20] | 0.0003 |
| [NMeY][Aib]EGTFISDYSIALDR[Aib]AQ[Aib]K([AEEA-γGlu-γGlu-C15 diacid])FVNWLLAQR-NH2 (N-terminus assumed; SMILES CC[C@H](C)[C@H](NC(=O)[C@H](CO)NC(=O)[C@H](Cc1ccc(O)cc1)NC(=O)[C@H](CC(=O)O)NC(=O)[C@H](CO)NC(=O)[C@@H](NC(=O)[C@H](Cc1ccccc1)NC(=O)[C@@H](NC(=O)CNC(=O)[C@H](CCC(=O)O)NC(=O)C(C)(C)NC(=O)[C@H](Cc1ccc(O)cc1)NC)[C@@H](C)O)[C@@H](C)CC)C(=O)N[C@@H](C)C(=O)N[C@@H](CC(C)C)C(=O)N[C@@H](CC(=O)O)C(=O)N[C@@H](CCCNC(=N)N)C(=O)NC(C)(C)C(=O)N[C@@H](C)C(=O)N[C@@H](CCC(N)=O)C(=O)NC(C)(C)C(=O)N[C@@H](CCCCNC(=O)COCCOCCNC(=O)CC[C@H](NC(=O)CC[C@H](NC(=O)CCCCCCCCCCCCCC(=O)O)C(=O)O)C(=O)O)C(=O)N[C@@H](Cc1ccccc1)C(=O)N[C@H](C(=O)N[C@@H](CC(N)=O)C(=O)N[C@@H](Cc1c[nH]c2ccccc12)C(=O)N[C@@H](CC(C)C)C(=O)N[C@@H](CC(C)C)C(=O)N[C@@H](C)C(=O)N[C@@H](CCC(N)=O)C(=O)N[C@@H](CCCNC(=N)N)C(N)=O)C(C)C) [Compound 86] | 0.0014 |
| [NMeY][Aib]EGTFISDYSI[Aib]KDR[Aib]AQ[Aib]NFVNWLLAQRPSSGAPPPS-NH2 (not fully specified (residue 14)) [Compound 120] | 0.0004 |
| [NMeY][Aib]EGTFISDYSIALDR[Aib]AQ[Aib]K([AEEA-AEEA-γGlu-γGlu-C15 diacid])FVNWLLAQKG-OH (N-terminus assumed; SMILES CC[C@H](C)[C@H](NC(=O)[C@H](CO)NC(=O)[C@H](Cc1ccc(O)cc1)NC(=O)[C@H](CC(=O)O)NC(=O)[C@H](CO)NC(=O)[C@@H](NC(=O)[C@H](Cc1ccccc1)NC(=O)[C@@H](NC(=O)CNC(=O)[C@H](CCC(=O)O)NC(=O)C(C)(C)NC(=O)[C@H](Cc1ccc(O)cc1)NC)[C@@H](C)O)[C@@H](C)CC)C(=O)N[C@@H](C)C(=O)N[C@@H](CC(C)C)C(=O)N[C@@H](CC(=O)O)C(=O)N[C@@H](CCCNC(=N)N)C(=O)NC(C)(C)C(=O)N[C@@H](C)C(=O)N[C@@H](CCC(N)=O)C(=O)NC(C)(C)C(=O)N[C@@H](CCCCNC(=O)COCCOCCNC(=O)COCCOCCNC(=O)CC[C@H](NC(=O)CC[C@H](NC(=O)CCCCCCCCCCCCCC(=O)O)C(=O)O)C(=O)O)C(=O)N[C@@H](Cc1ccccc1)C(=O)N[C@H](C(=O)N[C@@H](CC(N)=O)C(=O)N[C@@H](Cc1c[nH]c2ccccc12)C(=O)N[C@@H](CC(C)C)C(=O)N[C@@H](CC(C)C)C(=O)N[C@@H](C)C(=O)N[C@@H](CCC(N)=O)C(=O)N[C@@H](CCCCN)C(=O)NCC(=O)O)C(C)C) [Compound 25] | 0.0005 |
| [NMeY][Aib]EGTFISDYSI[Aib]LDR[Aib]K(2OEGgEgE‑C15DA)Q[Aib]NFVNWLLAQSPSSGAPPPS-NH2 (N-terminus assumed; SMILES CC[C@H](C)[C@H](NC(=O)[C@H](Cc1ccccc1)NC(=O)[C@@H](NC(=O)CNC(=O)[C@H](CCC(=O)O)NC(=O)C(C)(C)NC(=O)[C@H](Cc1ccc(O)cc1)NC)[C@@H](C)O)C(=O)N[C@@H](CO)C(=O)N[C@@H](CC(=O)O)C(=O)N[C@@H](Cc1ccc(O)cc1)C(=O)N[C@@H](CO)C(=O)N[C@H](C(=O)NC(C)(C)C(=O)N[C@@H](CC(C)C)C(=O)N[C@@H](CC(=O)O)C(=O)N[C@@H](CCCNC(=N)N)C(=O)NC(C)(C)C(=O)N[C@@H](CCCCNC(=O)COCCOCCNC(=O)COCCOCCNC(=O)CC[C@H](NC(=O)CC[C@H](NC(=O)CCCCCCCCCCCCCC(=O)O)C(=O)O)C(=O)O)C(=O)N[C@@H](CCC(N)=O)C(=O)NC(C)(C)C(=O)N[C@@H](CC(N)=O)C(=O)N[C@@H](Cc1ccccc1)C(=O)N[C@H](C(=O)N[C@@H](CC(N)=O)C(=O)N[C@@H](Cc1c[nH]c2ccccc12)C(=O)N[C@@H](CC(C)C)C(=O)N[C@@H](CC(C)C)C(=O)N[C@@H](C)C(=O)N[C@@H](CCC(N)=O)C(=O)N[C@@H](CO)C(=O)N1CCC[C@H]1C(=O)N[C@@H](CO)C(=O)N[C@@H](CO)C(=O)NCC(=O)N[C@@H](C)C(=O)N1CCC[C@H]1C(=O)N1CCC[C@H]1C(=O)N1CCC[C@H]1C(=O)N[C@@H](CO)C(N)=O)C(C)C)[C@@H](C)CC) [Compound 111] | 0.0004 |
| [NMeY][Aib]EGTFISDYSIALDK[Aib]AQ[Aib]NFVNWLLAK([AEEA-AEEA-γGlu-C15 diacid])S-OH (not fully specified) [Compound 35] | 0.0003 |
| Me-Y[Aib]EGTFISDYSI[Aib]LDR[Aib]AQ[Aib]NFVNWLLAQK([2OEG-γGlu-γGlu-C15 diacid])PSSGAPPPS-NH2 [Compound 21] | 0.0003 |
| [NMeY][Aib]EGTFISDYSIALDR[Aib]AQ[Aib]K([AEEA-AEEA-γGlu-γGlu-C15 diacid])FVNWLLAQR-NH2 (not fully specified (N-terminus); also: C-term NH2 in mods, C_TER column prints OH) [Compound 14] | 0.0004 |
| [NMeY][Aib]EGTFISDYSI[Aib]LDR[Aib]AQ[Aib]K([Gly-Gly-Glu-Glu-Glu-C15 diacid])FVNWLLAQK-NH2 [Compound 113] | 0.0004 |
| Me-Y[Aib]EGTFISDYSI[Aib]K([AEEA-AEEA-γGlu-γGlu-C15 diacid])DR[Aib]AQ[Aib]NFVNWLLAQRPSSGAPPPS-NH2 [Compound 19] | 0.0004 |
| Me-Y[Aib]EGTFISDYSIALDR[Aib]AQ[Aib]KFVNWLLAQKG-OH (not fully specified (residues 1, 21)) [Compound 148] | 0.0011 |
| Me-Y[Aib]EGTFISDYSIALDR[Aib]KQ[Aib]NFVNWLLAQSPSSGAPPPS-NH2 (not fully specified (residues 1, 18)) [Compound 144] | 0.0001 |
| [NMeY][Aib]EGTFISDYSIAK([G5-γGlu-C15 diacid])DR[Aib]AQ[Aib]DFVNWLLAQSPSSGAPPPS-NH2 [Compound 79] | 0.0002 |
| YXEGTFISDYSIXXDRXAQXDFVNWLLAQRG (Me-Tyr1; Aib 2,13,17,20; Km14 = Lys(GGGGG-C15 diacid) (Table 3 prints the linker 'GS'); C-term OH) [Compound 142] | 0.0001 |
| [NMeY][Aib]EGTFISDYSIALDRKAQ[Aib]NFVNWLLAQSPSSGAPPPS-OH (not fully specified (residue 17)) [Compound 54] | 0.0001 |
| Y[Aib]EGTFISDYSI[Aib]KDR[Aib]AQ[Aib]NFVNWLLAQR-NH2 (not fully specified (residues 1, 14)) [Compound 59] | 0.0004 |
| Y[Aib]EGTFISDYSIAK([G2E3-C15 diacid])DR[Aib]AQ[Aib]NFVNWLLAQRPSSGAPPPS-OH (not fully specified (residue 1); also: Me-Tyr methyl position not given here) [Compound 49] | 0.0002 |
| Me-Y[Aib]EGTFISDYSIALDR[Aib]K([AEEA-AEEA-γGlu-γGlu-C15 diacid])Q[Aib]NFVNWLLAQSPSSGAPPPS-NH2 [Compound 17] | 0.0004 |
| Me-Y[Aib]EGTFISDYSIALDR[Aib]AQ[Aib]KFVNWLLAQKG-OH (not fully specified (residues 1, 21)) [Compound 143] | 0.0004 |
| Y[Aib]EGTFISDYSIAKDR[Aib]AQ[Aib]NFVNWLLAQRPSSGAPPPS-OH (not fully specified (residues 1, 14); also: Me-Tyr methyl position not given here) [Compound 50] | 0.0004 |

target: full-length human GLP-1R with an N-terminal FLAG tag (human, UniProt P43220 24-463); assay: cell-based or functional assay

| Binder | Human GLP1R cAMP HEK293T EC50 [nM] |
| --- | --- |
| [NMeY][Aib]EGTFISDYSIAK(2OEGgE‑C16DA)DR[Aib]AQQNFVNWLLAQK [Compound 1] | 871 |
| [NMeY][Aib]EGTFISDYSIAKDR[Aib]AQQNFVNWLLAQK (not fully specified (residue 14)) [Compound 3] | 692 |
| [NMeY][Aib]EGTFISDYSIAKDR[Aib]AQQNFVNWLLAQK (not fully specified (residue 14, N-terminus)) [Compound 2] | 1000 |
